Entries after “also recorded” stand apart in the source; their conditions may differ.
Legend:
Assay type in all cases: cell-based, human
[1] = tested on: IL-6 gene expression in amniotic epithelial (WISH) cells; experiment: rhPBEF treatment of WISH cells, IL-6 gene expression by Northern analysis; details: for increase in IL-6 gene expression: 4 h, vs control
Procedure: (§1) Total RNA was extracted (see Chomzynski and Sacchi, supra) and MRNA prepared as previously described (see Aviv and Leder, supra). Samples of MRNA (10-20 μg) were electrophoresed, and the RNA transferred to a nylon membrane (Magna Graph, MSI, Westborough, Mass.) as previously described (see Ognjanovic et al., supra). The cDNA probes were labeled using the Random Primed DNA labeling kit and following the manufacturer's instructions (Invitrogen, Carlsbad, Calif.). The filters were hybridized at 68° C. for 1 h using Express Hyb solution (Clontech, Palo Alto, Calif., USA). A final wash stringency of 0.1×SSC, 0.1% SDS was performed at 50° C. Filters were deprobed in 0.5% SDS for 10 min at 100° C. and re-hybridized sequentially with cDNA probes to PBEF, IL-6 and IL-8 and finally with a human glyceraldehyde-3 phosphate dehydrogenase (G3PDH) cDNA probe (Clontech), as an internal standard. The Northern blot was quantitated with a Phospholmager (Amersham Pharmacia Biotech, Piscataway, N.Y.), using the G3PDH value for each sample to standardize sample loading. Results were expressed as a ratio to G3PDH. Statistical analysis was performed using the Tukey-Kramer multiple comparison test.
(§2) The amnion-like epithelial (WISH) cells were obtained from American Type Culture Collection (ATCC# CCL-25) (ATCC, Manassas, Va.). WISH cells were cultured in Dulbecco's Modified Eagle Medium:Ham F-12 (DMEM:F12) (1:1) supplemented with 10% fetal bovine serum (FBS) (Life Technologies, Grand Island, N.Y.), penicillin (50 U/ml)-streptomycin (50 μg/ml) and incubated at 37° C. in 5% CO2/95% air. After reaching confluency, the cells were trypsinized and plated into 6-well culture dishes at a density of 1×10^5 cells in 4 ml media. After 48 h or when the cells reached 80% confluency, the growth medium was replaced with minimal media (0.5% FBS and 0.2% lactalbumin in DMEM:F12) and incubated for 12 h. Treatment of the cells began with addition of rhPBEF prepared in minimal media. The concentration of rhPBEF was determined using the BioRad protein assay and 1, 10 and 100 ng/ml was added to the cells for 4 and 24 h. Treatment was carried out in triplicate and each experiment was performed at least three times on different occasions. Controls received minimal media containing 0.5% bovine serum albumin (15 μl) in phosphate buffer saline (PBS). […]
In addition to fetal membrane explants, the amniotic epithelial cell line, WISH cells, were also used to study the effects of PBEF on the expression of IL-6 and IL-8. The expression of the IL-6 and IL-8 genes were quantitated by Northern blotting using total RNA isolated from the cells and calculated as the degree of upregulation (fold) compared to the respective control at each time (see FIGS. 4A-4C). […]

[2] = tested on: IL-8 gene expression in amniotic epithelial (WISH) cells; experiment: rhPBEF treatment of WISH cells, IL-8 gene expression by Northern analysis; details: rhPBEF 100 ng/ml, 4 h
Procedure: as §1, with “Statistical analysis was performed using the Tukey-Kramer multiple comparison test.” left out
The amnion-like epithelial (WISH) cells were obtained from American Type Culture Collection (ATCC# CCL-25) (ATCC, Manassas, Va.). […] The concentration of rhPBEF was determined using the BioRad protein assay and 1, 10 and 100 ng/ml was added to the cells for 4 and 24 h. […]

[3] = tested on: IL-8 protein in WISH cell culture media; experiment: rhPBEF treatment of WISH cells, IL-8 protein in media by ELISA; details: rhPBEF 10 ng/ml, 4 h
Procedure: as §2, with “h.” for “h. Treatment was carried out in triplicate and each experiment was performed at least three times on different occasions. Controls received minimal media containing 0.5% bovine serum albumin (15 μl) in phosphate buffer saline (PBS).”
The IL-8 enzyme-linked immunosorbent assay (ELISA) kit was purchased from R&D Systems (Minneapolis, Minn.) and used to determine the IL-8 protein concentration in the culture supernatants following the manufacturer's protocol. […] The basal levels of IL-6 protein in conditioned media of WISH cells were reported to be at the limit of sensitivity of ELISA (see Keelan et al., supra) and could not be considered reliable, therefore the levels of IL-6 protein were not measured.

[4] = tested on: IL-6 gene expression in fetal membrane explants; experiment: rhPBEF treatment of fetal membrane explants, IL-6 gene expression by Northern analysis; details: rhPBEF 100 ng/ml, 4 h, vs control
Description: (§3) elective term Cesarean section without labor (n=7). For the Northern analysis of IL-6 and IL-8 gene expression after rhPBEF treatment, fetal membranes from elective term Cesarean sections before labor (37-40 weeks gestation, n=6) were collected and cut into 3×3 cm explants. None of the preterm or term patients or tissues had any clinical or histological signs of chorioamnionitis. The placentas and membranes were examined by a pathologist for histological evidence of infection using the criteria of Naeye (see Naeye R I. “Disorders of the placenta, fetus and neonate: diagnosis and clinical significance.” St Louis: C U Mosby; 1992. p.258) and all tissues with any sign of infection were excluded from this study.
Total RNA was extracted (see Chomzynski and Sacchi, supra) and MRNA prepared as previously described (see Aviv and Leder, supra). Samples of MRNA (10-20 μg) were electrophoresed, and the RNA transferred to a nylon membrane (Magna Graph, MSI, Westborough, Mass.) as previously described (see Ognjanovic et al., supra). The cDNA probes were labeled using the Random Primed DNA labeling kit and following the manufacturer's instructions (Invitrogen, Carlsbad, Calif.). […] The Northern blot was quantitated with a Phospholmager (Amersham Pharmacia Biotech, Piscataway, N.Y.), using the G3PDH value for each sample to standardize sample loading. Results were expressed as a ratio to G3PDH. […]

[5] = tested on: IL-8 gene expression in fetal membrane explants; experiment: rhPBEF treatment of fetal membrane explants, IL-8 gene expression by Northern analysis; details: rhPBEF 100 ng/ml, 4 h, vs control
Description: as §3, §1
Each fetal membrane was cut into several 3×3 cm explants. […]

[6] = tested on: key mediators of labor in fetal membrane explants; experiment: rhPBEF treatment of fetal membrane explants, gene chip analysis (Affymetrix); details: rhPBEF 100 ng/ml, 4 hours
Procedure: Fetal membranes from three patients were cut into several 3×3 cm explants. One explant was used to check for infection. Another explant was treated with 100 ng/ml rhPBEF in minimal media for 4 hours, an adjacent explant was used as a control and was incubated in minimal media only for the same period. At the end of this time, total RNA was extracted using the RNeasy Maxi kit (Qiagen Inc., Valencia, Calif.). These RNAs were run in pairs (explants treated and controls from each of the patients), were reverse-transcribed and the resulting cDNAs/cRNAs labeled with tracking fluorescent dyes and hybridized to DNA microchips (Affymetrix Inc.) containing 22,000 gene transcripts. The binding of the fluorescent fragments was proportional to the abundance of the gene in the original samples. Therefore changes in gene expression result in signal differences. […] The Affymetrix system has numerous controls built into the methodology in order to minimize false positive results.

B1: rhPBEF: recombinant human pre-B cell colony-enhancing factor produced in a bacterial system using pTrcHis2 vector (protein)
chain: MNPAAEAEFNILLATDSYKVTHYKQYPPNTSKVYSYFECREKKTENSKLRKVKYEETVFYGLQYILNKYLKGKVVTKEKIQEAKDVYKEHFQDDVFNEKGWNYILEKYDGHLPIEIKAVPEGFVIPRGNVLFTVENTDPECYWLTNWIETILVQSWYPITVATNSREQKKILAKYLLETSGNLDGLEYKLHDFGYRGVSSQETAGIGASAHLVNFKGTDTVAGLALIKKYYGTKDPVPGYSVPAAEHSTITAWGKDHEKDAFEHIVTQFSSVPVSVVSDSYDIYNACEKIWGEDLRHLIVSRSTQAPLIIRPDSGNPLDTVLKVLEILGKKFPVTENSKGYKLLPPYLRVIQGDGVDINTLQEIVEGMKQKMWSIENIAFGSGGGLLQKLTRDLLNCSFKCSYVVTNGLGINVFKDPVADPNKRSKKGRLSLHRTPAGNFVTLEEGKGDLEEYGQDLLHTVFKNGKVTKSYSFDEIRKNAQLNIELEAAHH
- increase in IL-6 gene expression ([1]; rhPBEF 1 ng/ml): 15%
- increase in IL-6 gene expression ([1]; rhPBEF 10 ng/ml): 29%
- increase in IL-6 gene expression ([1]; rhPBEF 100 ng/ml): 44%
- IL-6 gene expression, dose dependence ([1]; rhPBEF 1, 10 and 100 ng/ml, 4h): dose-dependent increase
- increase in IL-8 gene expression [2]: absent
- increase in secreted IL-8 (ELISA) [3]: 15%
- upregulation of IL-6 gene expression [4]: 40%
- upregulation of IL-8 gene expression [5]: 120%
- upregulation of IL-8 gene expression ([5]; listed as PBEF): 120%
- upregulation of IL-8 gene expression ([5]; listed as RhPBEF): significant (p<0.05) increase
- COX-2 gene expression [6]: stimulates; also recorded: significantly upregulated
- GRO-γ gene expression [6]: significantly upregulated
- IL-1β gene expression [6]: stimulates; also recorded: significantly upregulated
- IL-6 gene expression [6]: stimulates; also recorded: significantly upregulated
- MIP-1α gene expression [6]: significantly upregulated
- MIP-1β gene expression [6]: significantly upregulated
- TNF-α gene expression [6]: stimulates; also recorded: significantly upregulated

Reference: patent US20050260683A1, “Methods for diagnosing and treating pre-term labor” (University of Hawaii, priority 2002, published 2005)
